Key:
MLL3_(PHD2/3) D400K [1] = molecular target: T1, MLL3_(PHD2/3) D400K (human, UniProt Q8NEZ4 342-439, D400K); experiment: not stated; fluorescence spectroscopy or NMR: the legends of Fig. 3c and Fig. 4b say that values marked (a) are from NMR and the others from fluorescence; the text does not tell which for these pairs; settings: both partners purified
T1 construct: human MLL3 (KMT2C), aa 342-439; source: E. coli BL21-CodonPlus, purified as WT
T1 sequence (looked up): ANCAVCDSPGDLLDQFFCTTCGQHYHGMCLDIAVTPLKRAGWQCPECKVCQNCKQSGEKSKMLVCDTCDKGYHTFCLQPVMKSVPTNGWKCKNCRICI

MLL3_(PHD2/3) D372K [2] = molecular target: T2, MLL3_(PHD2/3) D372K (human, UniProt Q8NEZ4 342-439, D372K); experiment: as above; settings: both partners purified
T2 construct: human MLL3 (KMT2C), aa 342-439; source: E. coli BL21-CodonPlus, purified as WT
T2 sequence (looked up): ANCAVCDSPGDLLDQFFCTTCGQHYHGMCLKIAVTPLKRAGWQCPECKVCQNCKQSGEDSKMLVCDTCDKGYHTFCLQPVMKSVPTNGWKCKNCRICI

MLL3_(PHD2/3) D372K [3] = molecular target: T3, MLL3_(PHD2/3) D372K (human, UniProt Q8NEZ4 342-439, D372K)
T3 sequence: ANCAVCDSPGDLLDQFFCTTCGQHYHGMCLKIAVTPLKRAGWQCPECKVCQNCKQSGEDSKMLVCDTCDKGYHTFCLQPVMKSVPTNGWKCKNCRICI

MLL3_(PHD2/3) E387Q = molecular target: T4, MLL3_(PHD2/3) E387Q (human, UniProt Q8NEZ4 342-439, E387Q)
T4 sequence: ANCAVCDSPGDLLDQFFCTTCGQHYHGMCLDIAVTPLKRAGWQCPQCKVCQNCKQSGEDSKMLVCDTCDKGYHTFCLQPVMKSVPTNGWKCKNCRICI

MLL3_(PHD2/3) D400K [4] = molecular target: T5, MLL3_(PHD2/3) D400K (human, UniProt Q8NEZ4 342-439, D400K)
T5 sequence: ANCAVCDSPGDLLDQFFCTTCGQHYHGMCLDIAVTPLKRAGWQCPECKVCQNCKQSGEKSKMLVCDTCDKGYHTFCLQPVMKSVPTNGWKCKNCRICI

MLL3_(PHD2/3) D372N = molecular target: T6, MLL3_(PHD2/3) D372N (human, UniProt Q8NEZ4 342-439, D372N)
T6 sequence: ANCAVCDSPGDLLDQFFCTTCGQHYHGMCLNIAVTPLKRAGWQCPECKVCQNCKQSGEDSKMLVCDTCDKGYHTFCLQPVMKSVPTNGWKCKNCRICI

fold reduction in binding against wild type MLL3_(PHD2/3) (MLL3_(PHD2/3) D400K [1]): 400 fold
fold reduction in binding against wild type MLL3_(PHD2/3) (MLL3_(PHD2/3) D372K [2]): ~40 fold
Kd (MLL3_(PHD2/3) D372K [3]): 55 µM
Kd (MLL3_(PHD2/3) E387Q): 6 µM
Kd (MLL3_(PHD2/3) D400K [4]): 540 µM
Kd (MLL3_(PHD2/3) D372N): 9 µM
B1: ASXL2 peptide (residues 650-670 of ASXL2) (peptide, UniProt Q76L83 650-670, looked up)
peptide: NRTGARTLADIKAKAQLVKAQ
notes: also called ASXL2 (aa 650-670); MBH of ASXL2; source: synthetic peptide (SynPeptide)

— article PMC11161652, “ASXLs binding to the PHD2/3 fingers of MLL4 provides a mechanism for the recruitment of BAP1 to active enhancers” (Nature Communications, 2024)
